Measurements as given in US12391751B2, “Antibody against advanced glycation end products and use thereof” (Bloom Technology Corporation, priority 2018, dated 2025).

Tests used:
[1] = Reactivity of SJ-5 with Lys-hydroxy-triosidine by competitive ELISA (Example 18); format: binding; conditions: immobilized Glycer-AGEs-BSA
Experimental: A solution of BSA containing AGEs derived from glyceraldehyde (stock solution: 10 mg/mL PBS solution) prepared into 1 μg/mL in a coating solution was added at 100 μL/well to a 96-well microtiter plate (COSTAR) and incubated overnight at 4° C.
Each well after the immobilization treatment was washed three times with a washing solution (300 μL), and a blocking solution (200 μL) was added thereto and left at room temperature for 1 hour.
GAL691 (prepared in Example 16) and Lys-hydroxy-triosidine (prepared in Example 17) were each dissolved in a phosphate buffer solution (0.2 M, pH 7.4) to prepare a 10 mg/mL solution. Sample solutions of 2-fold dilution series from 0.625 to 10 mg/ml (5 points) were further prepared by dilution with a diluting solution. Dilution solutions were also prepared from a blank solution containing no sample in the same way as above. […]
Absorbance was measured at a dominant wavelength of 450 nm and a sub-wavelength of 650 nm with a microplate reader (Cytation 5, BioTek Instrument Inc.), and the absorbance at the sub-wavelength was subtracted from the absorbance at the dominant wavelength. Change in the absorbance of GAL691 and Lys-hydroxy-triosidine was indicated as relative values to the absorbance of the blank solution.

mouse retinal tissue = assay: Retinal tissue staining of diabetic mouse and control mouse (Example 36); conditions: diabetic mice compared with control mice; antibody 1 mg/mL diluted 500-fold; Alexa 594 secondary
Experimental: A C57BL6/J mouse (CLEA Japan, Inc.) on 13 days of pregnancy was purchased, and child mice were obtained. For diabetic mice, streptozotocin (FUJIFILM Wako Pure Chemical Corp.) was dissolved at 5 mg/mL in saline (Otsuka Pharmaceutical Co., Ltd.) and subcutaneously administered at 300 μL to a male child mouse 2 days after birth. For control mice, saline was subcutaneously administered at 300 μL to a male child mouse 2 days after birth. After living together with the mother mouse for 4 weeks and subsequent weaning, the diabetic mice were raised with HFD32 (CLEA Japan, Inc.) for 8 weeks. The control mice were raised with CE-2 (CLEA Japan Inc.) for 8 weeks.
1.875 mL of Domitor (Nippon Zenyaku Kogyo Co., Ltd.), 2 mL of midazolam (Sandoz K.K.), 2.5 mL of Vetorphale (Meiji Seika Pharma Co., Ltd.), and 18.625 mL of saline were mixed to prepare a three drug-mixed anesthetic. The body weight of each mouse was measured with a scale (TANITA Corp.), and the three drug-mixed anesthetic was intraperitoneally administered at […]. […]
Acetone (FUJIFILM Wako Pure Chemical Corp.) was incubated for 16 hours or longer in a freezer (Fukushima Industries Corp.) set to −30° C. to prepare cold acetone. […] Then, the fluorescence of Alexa 594 in the retina was observed under a confocal laser microscope (Olympus Corp.).

Row | Molecule | recognition of Lys-hydroxy-triosidine [1] | staining of retinal ganglion cell layer, internal and external granular layers, retinal pigment epithelial cell layer (mouse retinal tissue)
1 | SJ-5: mouse monoclonal antibody raised against GAL13-MSA; heavy-chain variable region SEQ ID NO 4, light-chain variable region SEQ ID NO 8 (antibody, listed as Mus musculus, V domains shown) VH: EVMLVESGGRLVKPGGSLKLSCAASGFTFSSYGMSWVRQTPEKRLEWVATISGGGSYTYYPDSVKGRFTISRDNVKNNLYLQMSSLRSEDTALYYCARRGAYGDYGWFAYWGQGTLVTVSA VL: DIVLTQSPATLSVTPGDSVSLSCRASQSINNNLHWYQQKSHESPRLLIKCASQSISGIPSRFSGSGSGTDFTLSINSVETEDFGMYFCQQSNSWPLTFGAGTKLELK | does not recognize | 
2 | PB-1: mouse monoclonal antibody raised against A-peak-BSA; heavy-chain variable region SEQ ID NO 18, light-chain variable region SEQ ID NO 22 (antibody, listed as Mus musculus, V domains shown) VH: EVRLQQSGPELVKPGTSVKISCKASGYSFTGYYMHWVKQSPVKSLEWIGRIIPYNGATSYNQNFKDKASLTVDKSSRTAYMDLHSLTSEDSAVYYCARSRYYGRAPYYFDYWGQGTTLTVSS VL: DVVVTQTPLSLPVSLGDQASISCRSSQSIVHSNGNTYLEWYLQKPGQSPKLLIYKVSNRFSGVPDRISGSGSGTDFTLKISRVEAGDLGVYSCFQGSHVPFTFGSGTKLEIK |  | bind strongly
